According to the DeepSol protein solubility set:

Assay: soluble on expression in E. coli; label from the status in PepcDB or PDB records

Row | Sequence | soluble on expression in E. coli
1 | MGSDKIHHHHHHMDRKLLRLYQPLNAYSYNSDSLFLYDFSRPFIKNSGAILDIGSGCGILGLLCARDNPLAIVHLVEKDNKMAFCSQKNALKFPNAQVFEGDFLDFNPPILYDIIVCNPPFYALGSIKSKIKGHARHQSELDFASLVAKVKKCLKPKGYFIFCYEALSLCLVIEGLKSVKLTLETLRFVQSFKDKNAHLMLGAARNNSKSALKVLPPLITHHSKNQSDNTKEVLSIYQTCNTYSIKALLN | not soluble
2 | MGSDKIHHHHHHMENVSSVTSDGSVADVHAERWQELLARLDADAPDIAEGTAAKLLATIPGYELVDAGPIRESSIRNTALIIRVINAGTEPKAEDLPEALRLADERIAQNVPLGSVLHGFRMSLGEILEHLVQLGPEYNIDPGRMLRWSTLMWAVNDAFSTRATRVYRDHEVATAIADSVRRSEWIGKAVSEGSELSELLWGAAMYDVPADTPLRALAATSPDHAKAETQIQKWTQRAGVRVLASVQPSVIVGIVIGEPKRNVDGPGFAVGLGRAEVLSKLADSYKDASLVLKAADNLKLNEVQRAQDLSWKLAIHASPRVTEILAQKYVKPLRESGEFAHEIVESLRAYVDNQMNIPAAARSIPVHVNTLRYRLRRFEELTGCYLEDTSTVIEVSWVLEVFGREL | not soluble
3 | MWLWRKLWGIGGTMSRNTEATDDVKTWTGGPLNYKEGFFTQLATDELAKGINEEVVRAISAKRNEPEWMLEFRLNAYHAWLEMEEPHWLKAHYDKLNYQDYSYYSAPSCGNCDDNCASEPGAVQQTGANAFLSKEVEAAFEQLGVPVREGKEVAVDAIFDSVSVATTYREKLAEQGIIFCSFGEAIHDHPELVRKYLGTVVPGNDNFFAALNAAVASDGTFIYVPKGVRCPMELSTYFRINAEKTGQFERTILVADEDSYVSYIEGCSAPVRDSYQLHAAVVEVIIHKNAEVKYSTVQNWFPGDNNTGGILNFVTKRALCEGENSKMSWTQSETGSAITWKYPSCILRGDNSIGEFYSVALTSGHQQADTGTKMIHIGKNTKSTIISKGISAGHSQNSYRGLVKIMPTATNARNFTQCDSMLIGANCGAHTFPYVECRNNSAQLEHEATTSRIGEDQLFYCLQRGISEEDAISMIVNGFCKDVFSELPLEFAVEAQKLLAISLEHSVG | soluble
4 | MAHHHHHHMARDYDAGYKLLFAMPEMMRDLLREFIRSDWLRALDYSTLERVSGNYVADNMRQRASDMVWRVDAGDPWGHLYVLLEFQSTIDRYMAPRMAAYTALLHQELVRAGQVLPDRRVPAALSIVLYNGDTPWSACTNIRDVVVSLPNGLAACQLHQQHTLLDINRLSEAQLPDDNLAALLFRIERAADYDTVVSLMIECRMRLRHEPKLKLAFAKTFAALLCGQRGSVLTPDQVFQLMEVDMQVVGANLQRFTHKLREEARQEGEARMLQKLLAERFGSLHASVVQRIEIATPEELERWGIQLLRAEVIEDVFRA | soluble
5 | MSLNPVNGAILSIEISHPNGFEIDENISAYHDAEYYMDRIFDSGNYDSLIVLTSIKILSQHWEIDNDMVVTSQSIRQLAIDTINSKAESGTIKNYWFKLQSLCEEFKNLSQETLSLSVFDNQVLTLNVNGHGIFRKSAFFESFANQKLNSADGKLMLIFNKFETFISRKSYHKLHEELLQLRKISANEITNLFTKHIEGKISTNEIQTILKDLEQIPGIVEIVKSLIGSSGFELIVDANSISSKELGAFHKISTVMIFKNIMETHKTLLLDLVVLFLTCETNDQIVEFVNQIRATLVQYDVMEVVFTTCLNKGEVETKNMGQVQNSIFWSSVVATHSQLKRLIESLQLNDGYEYFYNNVLPDDYLVDVVIELINNKEYFFLQKKFLTKLNQENKVEKLLVGLIYLFNNDVKSFYKIFNDYSNFQNFTENKIKNLNQDVNLQKFIEALLSNPSKSQYFHGLSKLVQSQIKTNDNKSQQEEHCFIEIASDFETLAIENEGHHHHHH | soluble
6 | MGSDKIHHHHHHMKLSVKIAGVLTVAAAAMTAKMYATAKGNHLKTHTFPLSKMKGKPPLTIFFISDIHKRLIDQDLLEKARSHAPHLVIIGGDLAEGGVPSARIEENIKRLVHFGVPIVFVWGNNDYEVRQHKLYSIFKAHGVITLRNESVPFSYNGHTIAIAGVDDIRMEMDHYEEAIKELDESQLNILVCHNPEIHEQINEDDGIDVILSGHTHGGQIRFGKFGPYELGKTGIVKNAAYLISNGYGTTKVPLRLGAEPETHIVTLCGPE | not soluble
7 | MMKALILAGGSGERFWPLSTPETPKQFLKLFGNKSLMRWTFERVLEEMDPKDVIVVTHKDYVERTKKELPELPDENIIAEPMKKNTAPACFIGTKLADDDEPVLVLPADHRIPDTKKFWKTVKKALDALEKYDGLFTFGIVPTRPETGYGYIEIGEELEEGVHKVAQFREKPDLETAKKFVESGRFLWNSGMFLWKAREFIEEVKVCEPSIYENLKDVDPRNFEELKKAYEKVPSISVDYAVMEKSKKVRVVKADFEWSDVGNWSSVREIEGYTEESDEVILVDSDRVFVKTHNKPIAVVGLSDVIVIDTPNGILICKEEYAQKVREVVKKLFRTS | soluble
8 | MIAGGFGAGKTTAVGAVSEITPLSTEEYLTEASADVDSLAGLASKRTTTVAFDFGRLSLPDAPMPLELFLFGTPGQDRFVDLWYDLSRGAVGAVVLVDTRRLESSFTPVSFFEDIGLPFVVAVNRFDGAHRYHPEQVRAALELPAAVPVVTCDAREPNHVAGVLLALVDHAVNCAATTNRAGHTPSTTLQDALEHHHHHH | not soluble
9 | MAHHHHHHMEEHPKILSIAGSDSCAGAGMQADLKTAMSLGCHCCTILVVLTAQNTKEVKSIIEVDEKFIVEQLDAIFTDITIEVVKLGVLYSKKIISLIHNYITNINKMREKKLLVVFDPVFVSSSGCMLVENLDYVKYALDLICPLSCIITPNFYECKVILEALNFNIDINNMRTSDLCKLVTEKLNINACLFKSCNIDINTEDENKLYAVDHLCIKNDNDYDTKIKQNISYDVYKLKSKRNPQKDIHGTGCTLSTAISCFLSKKYDIIQACIESKKYIYNCINYAYDLGSKSQGLNHLKAAQHLTDFRELQVIKVD | soluble
10 | MTATAQQLEYLKNSIKSIQDYPKPGILFRDVTSLLEDPKAYALSIDLLVERYKNAGITKVVGTEARGFLFGAPVALGLGVGFVPVRKPGKLPRETISETYDLEYGTDQLEIHVDAIKPGDKVLVVDDLLATGGTIEATVKLIRRLGGEVADAAFIINLFDLGGEQRLEKQGITSYSLVPFPGH | soluble
11 | SNAMSSEELEQVWSNIKSEARALAECEPMLASFFHATLLKHENLGSALSYILANKLANPIMPAIAIREVVEEAYRSDAHMIVSAARDILAVRLRDPAVDKYSTPLLYLKGFHALQAYRIGHWLWAQDRKALAIYLQNQVSVAFGVDIHPAATIGCGIMLDHATGIVIGETAVVENDVSILQSVTLGGTGKTSGDRHPKIREGVMIGAGAKILGNIEVGRGAKIGAGSVVLQSVPAHTTAAGVPARIVGKPESDKPSLDMDQHFNGSIQGFEYGDGI | soluble
12 | MSNQLFDAYFTAPAMREIFSDRGRLQGMLDFEAALARAEASAGLVPHSAVAAIEAACQAERYDTGALANAIATAGNSAIPLVKALGKVIATGVPEAERYVHLGATSQDAMDTGLVLQLRDALDLIEADLGKLADTLSQQALKHADTPLVGRTWLQHATPVTLGMKLAGVLGALTRHRQRLQELRPRLLVLQFGGASGSLAALGSKAMPVAEALAEQLKLTLPEQPWHTQRDRLVEFASVLGLVAGSLGKFGRDISLLMQTEAGEVFEPSAPGKGGSSTMPHKRNPVGAAVLIGAATRVPGLLSTLFAAMPQEHERSLGLWHAEWETLPDICCLVSGALRQAQVIAEGMEVDAARMRRNLDLTQGLVLAEAVSIVLAQRLGRDRAHHLLEQCCQRAVAEQRHLRAVLGDEPQVSAELSGEELDRLLDPAHYLGQARVWVARAVSEHQRFTA | soluble
13 | MGSDKIHHHHHHMIPWVISPYSFDGSVVRFEKLALLLKRKGLKSVILADRNFHAAVKFNTIMRKHGLIPVHGLWKDGRIFVARNREEFDSLVRYYNGETHEIEDIPVFQESELTPVRYLDASEKKASIFMRKIFGLDEDVQGFPEKCEDVADILNAEAYDLRVNHRFPTPPKNWNELLIKKAEPLGEEYISRLKRELEVIKRKGFTPYIYTVEKVVEIAKKMGIKVGPGRGSAVGSLVAYLCGITEVDPIKYDLLFERFLNEERQEPPDIDVDVEDRRRKDLIKELSKSFQVYQVSTFGNLTEKSLKNLINSVLPDASLEEKNEIYKTVYGLPHHPSVHAAGVVISENPLPLPTRTEEDIPITDYDMYDLQEIGVVKIDILGLKTLSFIKDFKKEIFDYSDEKTYHLISKGKTLGVFQLEGLQARKLCRRISPRNMDELSILLALNRPGPLRSGLDVMFSNSKNVPAFFRKMFPETRGVLIYQEQIMRLAMFAGLSGTEADILRRAIAKKEREKMEPLLEKMKKGLLEKGMENAEQILEILLNFSSYAFNKSHSVAYAHITYQTAYLKAHHLEEFFKLYFAYNSSDAGKIFLAVQELRNEGYRVHPPDINISGKDLVFHGKDVYLPLTVVKGVGVTLVEQIEKIRPVSSVRELQERVTGVPRNVVESLITAGAFDKLYENRKLALEELNKRVEKDILEIRSLFGEKVEQESSNIKIGDITELEEKSMGFPLTPVHEVPTGLFARIDDVFTYGRILPVLVKRVSRNIVTDGLSVCRVRTDVPDGVHLVLLSPLQKIIKIWPFNENTRFVYRVDFTATLEKAGQNEITEVLKNGAVVRYEGYRPLTDEYRYRVVPR | not soluble
14 | MAAQIPESDQIKQFKEFLGTYNKLTETCFLDCVKDFTTREVKPEETTCSEHCLQKYLKMTQRISMRFQEYHIQQNEALAAKAGLLGQPR | soluble
15 | MTTTPYDIIGKEALYDMIDYFYTLVEKDERLNHLFPGDFAETSRKQKQFLTQFLGGPNIYTEEHGHPMLRKRHMDFTITEFERDAWLENMQTAINRAAFPQGVGDYLFERLRLTANHMVNS | not soluble
16 | MVSKLVKIEPKFKLIEKDGKGEYFIAKYNILPENLLVYGPEQELKKINTIQTNVKEFDTRTLFVSDYLEVVPPNPLVMFEKSHVVVNIYLNKLEHHHHHH | not soluble
17 | MGSDKIHHHHHHMERTDDESNKQPVILPPMIRIAYCTPSLHIPGGVERVLTTKANYLAENGNYDIYILLTDGKGKPPCYTLSPKVKIIQLDIDFEELWELPLWKKVPVYLKKQRIYRRKLSAALSHLKPDITVSLLRREINFITSLKDGSKKIGELHVNRKNYRNFEKNESNFIKELFAKLWMKSLVRHLKKLDKFVVLSEEDRANWPELQNVKVISNPLPFQSGTFSDLNNKRITAAGRYTYQKGFDLLLEAWSKICNRHPDWELHIYGKGNKTTYQVLAGKWKLKNLFLENATPDMLCKYHESSIFVSSSRFEGFGMVIAEAMACGVPAVSFACPCGPKDIIRDGEDGLLVENGKTEELAEKINYLIENEQIRKEMGKKARINVQRFAEDVIMQQWIQLFNNLLNGTKQ | not soluble
18 | MTITRQDAWTQDEDLLLAEVVLRHIREGGTQLSAFEEVGRALTRTAAACGFRWNSYVRKQYQSGIELAKKQRKELRKQIGVHSVNMPNSMKQTASASSEGKRDLSIQDVIQFLEQFKETPSAQEFQLEREKLKEQIQSLQKELEDLRSENQTLRNQLEMTEEDYKALIDIMDRARKMVVSKEDGRMKKAAQETLEHHHHHH | not soluble
19 | MAHHHHHHMHIFIYIQYLCFGVNEIIFHKPHKCHFFIYNILEGEKGKKPGFINLSNIMNNHNKYESKGFSASSLNNKSFSMTNDKITCGNEKKEMEGEGILNGSSKVDEEDKNIYNSKNNNNNMNYFNNKKIETKKTLGHKDIFVYVLVAGGDGTVNWVLKEAEYYNINDNNFAIGVIPFGTGNDFAKAFGWKKIDRMLNHSFLFDVLKKIVDQTFKSKVEKHDYWNIHVVLKEQGYFNKINSRTKKKETLLNDDKENLHEMKLCMSNYFSIGIDSRIGRGFERHRQKSAVCNKFIYAVEGFKKVSFKKNTPINLIIDKMINMDNNNDNNDNDNNIDGNDNNNDGNDNNNVIFTTNHNESYPLLKKAMSIICINIPSYSSGNDIWNYTHKIGLILPKNITNDQKEQYQILKKTKQEVGDGILEFVIYQSGVDLGLEFTLKGRAYRVHQGFGPWKLLFKEQKYNVYFQVDGEYYLMSLPDYISIEHYKKINVLKNIL | not soluble
